This assay concerns the target T1, MAP2c-1-467 with N-terminal histidine tag (H6-MAP2c) (rat, UniProt P15146-3 1-467, RED-tris-NTA fluorescent label on the histidine tag).
T1 sequence: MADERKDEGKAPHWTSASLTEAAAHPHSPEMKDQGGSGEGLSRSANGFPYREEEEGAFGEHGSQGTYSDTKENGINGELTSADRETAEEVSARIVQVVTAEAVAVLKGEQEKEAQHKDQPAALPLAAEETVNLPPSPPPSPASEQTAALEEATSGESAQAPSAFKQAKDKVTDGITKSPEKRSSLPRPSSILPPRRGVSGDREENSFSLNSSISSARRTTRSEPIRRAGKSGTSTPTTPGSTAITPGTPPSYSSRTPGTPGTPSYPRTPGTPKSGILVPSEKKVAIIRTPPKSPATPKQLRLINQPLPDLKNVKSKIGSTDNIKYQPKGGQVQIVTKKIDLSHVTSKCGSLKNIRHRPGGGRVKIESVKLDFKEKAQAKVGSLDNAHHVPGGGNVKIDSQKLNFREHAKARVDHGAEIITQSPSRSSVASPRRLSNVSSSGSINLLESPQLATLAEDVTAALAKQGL
Kind of assay: MST.

Consider one molecule from article PMC9520037 (The Journal of Biological Chemistry, 2022).

B1: SH3 domain of Fyn fused to hexahistidine tag (Fyn-SH3) (domain or fragment)
chain: not shown
The Kd is a measure of binding affinity in units of concentration. As to B1, the Kd is 22 ± 5 nM.
